How the values were obtained:
[1] = tested on: K6 mRNA in spinal cord; experiment: K6 mRNA in spinal cord after kainic acid excitotoxic injury; assay type: in vivo, rat; conditions: three days after intraperitoneal KA
Source text: Levels of K6 mRNA in adult rat spinal cord were increased in both white and gray matter following kainic acid (KA)-induced excitotoxic injury. Dark-field photomicrographs (FIG. 1) show the autoradiographic localization of K6 mRNA in a transverse section through the spinal cord of a control rat, and in parallel sections of paired experimental rats at 3 and 7 days after intraperitoneal injection of KA. By three days after KA treatment, K6 mRNA was 2-fold higher in the white matter and 1.5-fold higher in the dorsal horn (DH) and ventral horn (VH) of the spinal cord gray matter, compared to controls (P<0.05).

[2] = tested on: laminin
[3] = tested on: collagen type I
[4] = tested on: fibronectin
[5] = biological target: T1, recombinant rat myelin oligodendrocyte glycoprotein (αMOG), extracellular domain, amino acids 1-125 (UniProt Q63345)
T1 sequence: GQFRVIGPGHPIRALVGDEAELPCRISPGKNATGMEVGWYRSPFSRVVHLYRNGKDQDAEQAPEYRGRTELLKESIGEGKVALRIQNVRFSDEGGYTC

[6] = biological target: rat myelin basic protein (MBP) (UniProt P02688)
Sequence of UniProt P02688 (P02688 2-195): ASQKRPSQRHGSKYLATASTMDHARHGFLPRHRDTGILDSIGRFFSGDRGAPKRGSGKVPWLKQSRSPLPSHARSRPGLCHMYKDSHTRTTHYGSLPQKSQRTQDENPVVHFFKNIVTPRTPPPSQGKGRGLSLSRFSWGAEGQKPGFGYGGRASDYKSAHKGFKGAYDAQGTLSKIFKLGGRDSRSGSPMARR

`C=C(C)[C@H]1CN[C@H](C(=O)O)[C@H]1CC(=O)O` [KA, kainic acid] was tested, and the “K6 mRNA in dorsal horn (DH) and ventral horn (VH) gray matter compared to controls” value [1] was 1.5 fold and the “K6 mRNA in spinal cord white matter compared to controls” value [1] was 2 fold.
For “K6 (recombinant; species not stated where used)”, the “degradation on 7.5% SDS-PAGE” value [2] was “Laminin was partially degraded by one hour after K6 addition, and was completely degraded by 16 hours”, the “degradation on 7.5% SDS-PAGE” value [3] was “Collagen type I was degraded within 5 minutes of K6 addition” and the “degradation on 7.5% SDS-PAGE” value [4] was “Fibronectin was partially degraded within 1 hour of K6 addition and was completely degraded by 24 hours”.
For recombinant rat K6 (r-K6), the “degradation on 16.5% Tricine SDS-PAGE” value [5] was “αMOG was partially degraded by 1 hour after addition of K6, and was completely degraded by 4 hours” and the “degradation on 16.5% Tricine SDS-PAGE” value [6] was “MBP was partially degraded by 10 minutes after addition of K6, and showed much greater levels of degradation at 30 minutes and 60 minutes”.

Reference: patent publication US7754216B2, “Method of treating multiple sclerosis with anti-K6 antibody” (Mayo Foundation for Medical Education and Research, priority 2002, dated 2010)
